According to the RNAGym collection of RNA variant scans (doi:10.1073/pnas.2313332121):
This sample holds only a part of the variants without activity.

B1: TPR 5TU (parent)
chain: GGAUCUUCUCGAUCUAACAAAAAAGACAAAUCUGCCACAAAGCUUGAGAGCAUCUUCGGAUGCAGAGGCGGCAGCCUUCGGUGGCGCGAUAGCGCCAACGUUCUCAACUAUGACACGCAAAACGCGUGCUCCGUUGAAUGGAGUUUAUCAUG

Variants of: B1
Assay: polymerase ribozyme fitness, log enrichment relative to wild type (log ratio); higher = more active; in vitro selection for triplet polymerase activity
Method in brief: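 Both subunits of a heterodimeric triplet polymerase ribozyme were given their own mutant library, built by PCR and transcribed. Each library was annealed with a biotinylated primer, the partner subunit and triplets, incubated frozen at −7 °C, and its extended constructs gel-excised, captured on streptavidin beads and amplified by RT-PCR, all in one round done in triplicate. Fitness is the logarithm of genotype enrichment relative to wild-type enrichment, with replicates averaged by inverse-variance weighting. That logarithm is base 2, and Illumina-sequenced genotypes needed ≥10 input reads and ≥1 read per output.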

Variant	polymerase ribozyme fitness (log ratio)
GGAUCUUCUCGAUCUAACAAAAAAGACAAUUCUGCCACAAGGCUUGAGAGCAUCUUCGGAUGCAGAGGCGGCAGCCUUCGGUGGCGCGAUAGCGCCAACGUUCUCAACUAUGACACGCAAAACGCGUGCUCCGUUGAAUGGGGUUUAUCAUG	-3.58
GGAACUUCUCGAUCUAACAAAAAAGACAAAUCUGCCACAAAGCUUGAGAGCAUCUACGGAUGCAGAGGCGGCAGCCUUCGGUGGCGCGAUAGCGCCAACGUUCUCAACUAUGACACGCAAAACGCGUGCUCCGUUGAAUGGAGUUUAUCAUG	-0.0652
GGAUCUUCUCGAUCUAACAAAAAAGACAAAUCUGCCACAAAGCUUGAGAGCAUCUUCGGAUGCAGAGGCGGCUGCCUUCGGUGGCGCGAUAGCGCCAACGUUCUCAACUAUGACACGCAAAACGCGUGCUCCGUUGAAUGGAGCUUAUCAUG	-1.49
GGAUCUUCUCGAUCUAACAAAAAAGACAAAUCUGCCACAAAGCUUGAGAGCAUCUUUGGAUGCAGAGGCGGCAGCCUUCGGUGGCGCGAUAGCGCCAACGUUCUCAACUAGGACACGCAAAACGCGUGCUCCGUUGAAUGGAGUUUAUCAUG	-4.17
GGAUCUUCUCGAUCUAACAAAAAAGACAAAUCUGCCACAAAGCUUGAGAGCAUCUUCGGAUGCAGAGGCGGCGGCCUUCGGUGGCGCGAUAGCGCGAACGUUCUCAACUAUGACACGCAAAACGCGUGCUCCGUUGAAUGGAGUUUAUCAUG	-0.616
GGAUCUUCUCGAUCUAACAAAAAAGGCAAAUCUGCCACAAAGCUUGAGAGCAUCUUCGGAUGCAGAGGCGGCAGCCUUCGGUGGCGGGAUAGCGCCAACGUUCUCAACUAUGACACGCAAAACGCGAGGUCCGUUGAAUGGAGUUUAUCAUG	≤ -4.2
GGAUCUUCUCGAUCUAACAAAAAAGACAAAUCUGCCACAAAGCUUGAGAGCGUCUUCGGAUGCAGCCGCGGCAGCCUUCGGUGGCGCGAUAGCGCCAACGUUCUCAACUAUGACACGCAAAACGCGUGCUCCGUUGAAUGCAGUUUAUCAUG	≤ -4.2
GGAGCUUCUCGAUCUAACAAAUAAGACAAAUCUGCCACAAAGCUUGAGAGCAUCUUCGGAUGCAGAGGCGGCAGCCUUCGGUGGCGCGAUAGCGCCAACGUUCUCAACUAUGACACGCAAAACGCGUGCUCCGUUGAAUGGAGUUUACCAUG	-3.08
GGAUCUUCUCGAUCUAACAAAAAAGACAAAUCUGCCACAAAGCUUGAGAGCAUCUUCCGAUGCAGAGGCGGCAGCAUUCGGUGGCACGAUAGCGCCAACGUUCUCAACUAUGACACGCAAAACGCGUGCUCCGUUGAAUGGAGUUUUUCAUG	-2.24
GGAUCUUCUCGAUCUAACAAUAAAGACAAAUCUUCCACAAAGCUUGAGAGCAUGUUCGGAGGCAGAGGCGGCAGCCUUCGGUGGCGCGAUAGCGCCAACGUUCUCAAGUAUGACACGCAAAACGCGUGCUCCGUUGAAUAGAGUCUAUCAUG	-4.13
GGAUCUUCUCGAUCUAACAAAAAUGACAAAUCUGCCACAAAGCUUGAGAGCAUCUUCGGAUGCAGAGGCGGCAGCCUUCGGUGGCGCGAUAGCGCAAACGUUCUCAACUAUGACACGCAAAACGCGUGCUCCGUUGAAUGGAGUUUAUCAUG	0.632
GGAUCUUCUCGAUCUGACAAAAAAGACAAAUCUGCCACAAAGCUUAAGAGCAUCUUCGGAUGCAGAGGCGGCGGCCUUCGGUGGCGCUAUAGCACCAACGUUCUCAACUAUGAGACGCAAAACGCGUGCUCCGUUGAAUGGAGUUUAUCAUG	≤ -4.2
GGAUCUUCUCGAUCUAACAAAAAAGACAAAUCUGCCACAAAGCUUGAGAGCAUCUUCGGAUGCAGAGGCGGCAGCCUUCGGUGGCACGAUAGGGCCAAGGUUCUCAACUAUGACACGCAAAACGCGUGCUCCGUUGAAUGGAGUUAAUCAUG	-3.32
GGAUCUUCUCGAUCUAACAAAAAAGACAAAUCUGCCACAAAGCUUGAGAGCAUCUACGGAUGCAGAGGCGGCAGUCUUCGGUGGCGCGAUAGCGCCAACGUUCUCAACUAUGACACGCAAAACGCGUGCUCCGUUGAAUGGAGUUUAUCAUG	-0.839
GGAUCUUCUCGAUCUAACAAAAAAGACAAAUCUGCCACAAAGCUUGAGAGCAUCUUCGCAUGCAGAGGCGGCAGCCUUCGGUGGCGCGAUAGCGCCAACGUUCUCAACUAUGACACGCAAAACGCGUGCUCCGUUGAAUGGAGUUCAUCAUG	0.716
GGAUCUUCUCGAUCUAACAAAAAACACCAAUAUGCCACAAAGCUUGAGAGCAUCUUCGGAUGCAGAGGCGGCAGCCUUCGGUGGCGCGAUAGCGCCAACGUUCUCAACUGUGACACGCAAAACGCCUGCUCCGUUGAAUGGAGUUUAUCAUG	≤ -4.2
GGAUCUUCUCGAUCUAACAAAAAAGACAAAUCUGCCACAAAGCUUGAGCUCAGCUUCGGAUGCAGAGGCGGCAGCCUUCGCUGGCGUGCUAGCGCCAACGUUCUCUACUAUGACACGCAAAACGCGUGCUCCGUUGAAUGGAGUUUAUCCUG	≤ -4.2
GGAUCUUCUCGAACUAACAAAAAAGACAAAUCUGCCCCAAAGCUUGAGAGCAUCUUAGGAUGCAGAGGCGGCAGCCUUCGGUGGCGCGAUAGCGCCAACGUUCUCAACUAUGACACGCAAAACGCUUGCUCCGUUGAAUGGAGUUUAUCAUG	-1.66
GGAUCUUCUCGAUCUAACAAAAAAGACAAAUCUGCCACAAAGCUUGAGAGCAUCUUCGGAUGCAGAGGUGGCAGCCUUCGGUGGUGCGAUAGCGCCAACGUUCUCAACUAUGACACGCAAAACGCGUGCUCCGUUGAAUGGAGUUUACCAUG	-2.71
